Patent publication US20220204621A1 (UCL BUSINESS, published 2022)
Blank lines part the entries; values can stand above or below the binder they belong to.

Tests used:
[1] = target: human ROR1 with the combination of Q(261)H and I(254)V (human, UniProt Q01973 30-937, limits assumed); test: antibody binding to mutated human ROR1 constructs
[2] = target: human Receptor Tyrosine Kinase Like Orphan Receptor 1 (ROR1), full length (human) (UniProt Q01973); test: cell-based or functional assay
Sequence of human Receptor Tyrosine Kinase Like Orphan Receptor 1 (ROR1), full length (human) (Q01973 30-937): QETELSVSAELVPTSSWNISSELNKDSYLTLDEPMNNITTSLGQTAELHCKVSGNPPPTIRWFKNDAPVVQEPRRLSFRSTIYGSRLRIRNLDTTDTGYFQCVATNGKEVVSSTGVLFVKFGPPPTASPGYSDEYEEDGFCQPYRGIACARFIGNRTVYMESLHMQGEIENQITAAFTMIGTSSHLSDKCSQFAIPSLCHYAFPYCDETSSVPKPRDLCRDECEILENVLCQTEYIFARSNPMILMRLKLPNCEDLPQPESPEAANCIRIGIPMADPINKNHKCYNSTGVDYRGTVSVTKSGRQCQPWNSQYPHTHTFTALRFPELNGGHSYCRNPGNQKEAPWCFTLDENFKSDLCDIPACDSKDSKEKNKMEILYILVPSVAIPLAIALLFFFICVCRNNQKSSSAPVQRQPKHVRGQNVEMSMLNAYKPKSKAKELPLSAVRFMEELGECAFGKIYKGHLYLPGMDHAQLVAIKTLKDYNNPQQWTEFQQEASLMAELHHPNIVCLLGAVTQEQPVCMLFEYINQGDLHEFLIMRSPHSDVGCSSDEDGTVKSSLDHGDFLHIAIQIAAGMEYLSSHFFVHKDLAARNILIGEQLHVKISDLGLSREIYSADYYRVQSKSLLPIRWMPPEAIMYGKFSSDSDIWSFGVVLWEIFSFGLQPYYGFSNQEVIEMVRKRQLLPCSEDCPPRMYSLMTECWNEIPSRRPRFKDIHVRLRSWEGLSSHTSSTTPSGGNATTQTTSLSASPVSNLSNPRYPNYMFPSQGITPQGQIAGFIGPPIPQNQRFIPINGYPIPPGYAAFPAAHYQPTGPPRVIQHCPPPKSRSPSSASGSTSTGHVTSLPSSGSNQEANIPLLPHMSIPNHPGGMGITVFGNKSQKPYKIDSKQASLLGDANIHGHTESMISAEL

Sequence of human ROR1 with the combination of Q(261)H and I(254)V (Q01973 30-937 I254V/Q261H limits assumed): as the sequence (Q01973 30-937) above, with I225V, Q232H counted along it

- binding result [1]: no binding
B1: Clone F antibody (antibody, V domains shown)
VH: EVQLVESGGGLVQPGRSLKLSCAASGFIFSEHNMAWVRQAPKKGLEWVATISDDGRNTYYRDSMRGRFTISRENARSTLYLQLDSLRSEDTATYYCASHRYNLFDSWGQGVMVTVSS
VL: DIQMTQSPSFLSASVGDRVTINCKASQNIDRYLNWYQQKLGEAPKRLLYNTNKLQTGIPSRFSGSGSATDFTLTISSLQPEDFATYFCLQYNSLPLTFGSGTKLEIK
notes: Rat anti-ROR1 antibody from a hybridoma library

B2: ROR1xCD3 BiTE (membrane proximal binding ROR1-BiTE specific for the Frizzled domain) (bispecific antibody, part only; not given: OKT3 scFv and linkers, part only)
chain, part: HHHHHHEVQLVESGGGLVQPGRSLKLSCAASGFIFSEHNMAWVRQAPKKGLEWVATISDDGRNTYYRDSMRGRFTISRENARSTLYLQLDSLRSEDTATYYCASHRYNLFDSWGQGVMVTVSSDIQMTQSPSFLSASVGDRVTINCKASQNIDRYLNWYQQKLGEAPKRLLYNTNKLQTGIPSRFSGSGSATDFTLTISSLQPEDFATYFCLQYNSLPLTFGSGTKLEIK
- cytotoxicity against neuroblastoma cell lines; lowest concentration named (micrograms/ml) [2]: 0.01
- dose dependent cytotoxicity across ROR1 positive pancreatic cell lines (PANC-1, SUIT-2, CFPAC1, HPAF-II, MiaPaCa2, PSN-1); lowest concentration with significant activity [2]: 0.1 ng/mL
